Paper PMC9876794 (2022)

target: SARS-CoV-2 spike RBD (WT) (Severe acute respiratory syndrome …, UniProt P0DTC2); experiment: BLI

| Binder | Kd [nM] |
| --- | --- |
| B42 (antibody, V domains shown) VH: QVQLQQPGAELVKPGASVKVSCKASGYTFTSYWMHWVKQRPGQGLEWIGRIHPSDSDTNYNQKFKDKATLTVDKSSSTAYMQLSSLTSEDSAVYFCVIDHYFDYWGQGTTLTVSS VL: DIVMSQSPSSLAVSAGEKVTMSCKSSQSLLNSRTRKNYLAWYQQKPGQSPKLLIYWASTRESGVPDRFTGSGSGTDFTLTISSVQAEDLAVYYCKQSYNLYTFGGGTKLEIK | 91.8 |
| A11 (antibody, V domains shown) VH: QVQLQQPGAELVKPGTSVKLSCKASGYTFTSYWMHWVKQRPGQGLEWIGMIHPNSGNTNYNEKFKSKATLTVDKSSSTAYMQLSSLTSEDSAVYYCADLGAWFAYWGQGTLVTVSA VL: QIVLTQSPAIMSASPGEKVTMTCSASSSISYMHWYQQKPGTSPKRWIYDTSKLASGVPARFSGSGSGTSYSLTISSMEAEDAATYYCHQRSSYPWTFGGGTKLEIK | 7620 |
| B04 (antibody, V domains shown) VH: QVQLKQSGAELVRPGASVKLSCKASGYTFTDYYITWVKQRPGQGLEWIARICPGSGNTFYNEKFMGKATLTAEKSSSTAYMQLSSLTSEDSAVYFCARRGTLLYAFAYWGQGTLVTVSA VL: not shown | 100 |
| A21 (antibody, V domains shown) VH: QVQLQQSGAELVKPGASVKISCKASGYSFSDYWMNWVKQRPGKGLEWIGQIFPGDGDTNYNGKFKGKAALTADKSSSTAYMQLSSLTSEDSAVYFCARRELNYFDYWGQGTTLTVSS VL: QIVLTQSPAIMSASPGEKVTMTCSASSSVSYMFWYQQKPGSSPRLLIYDTSNLASGVPVRFSGSGSGTSYSLTVSRMEAEDAATYYCQQWSSYPLTFGSGTKLEIK | 138 |
| B44 (antibody, V domains shown) VH: QVQLQQPGAELVKPGASVKVSCKASGYTFTSYWMHWVKQRPGQGLEWIGRIHPSDSDTNYNQKFKGKATFTVDKSSSTAYMQLSSLTSEDSAVYYCAIGDGRDFDYWGQGTTLTVSS VL: DVVLTQTPLSLPVNIGDQASISCKSTKSLLNSDGFTYLDWYLQKPGQSPQLLIYLVSNRFSGVPDRFSGSGSGTDFTLKISRVEAEDLGVYYCFQSNYLPLTFGSGTKLEIK | 123 |
| B01 (antibody, V domains shown) VH: QVQLQQPGAELVKPGASMKVSCKASGYTFTSYWMHWVKQRPGQGLEWIGRIHPSDSDTNYNQKFKGKATLTVDKSSSTAYMQLSSLTSEDSAVYYCAIGGGRDFDYWGQGTTLTVSS VL: DVVLTQTPLSLPVNIGDQASISCKSTKSLLNSDGFTYLDWYLQKPGQSPQLLIYLFSNRFSGVPDRFSGSGSGTDFTLKISRVEAEDLGVYYCFQSNYLPWTFGGGTKLEIK | 18.7 |
| B26 (antibody, V domains shown) VH: QVQLQQPGAELVKPGASVKMSCKASGYTFTSYWITWVKQRPGQGLEWIGDIYPGSGSTNYNEKFKSKATLTVDTSSSTAYMQLSSLTSEDSAVYYCARDWDYGSSYWYFDVWGTGTTVTVSS VL: DIKMTQSPSSMYASLGERVTITCKASQDIKSYLSWYQQKPWKSPKTLIYYATSLADGVPSRFSGSGSGQDYSLTISSLASDDTATYYCLQHGESPYTFGGGTKLEIK | 104 |
| B47 (antibody, V domains shown) VH: EVQLQQSGPELVKPGASVKISCKASDYSFTGYYMNWVKQSPEKSLEWIGEINPSTGGTTYNQKFKAKATLTVDKSSSTAYMQLKSLTSEDSAVYYCARGSGAYWGQGTLVTVSA VL: DIVLTQSPASLAVSLGQRATISCRASESVEYYGTSLMQWYQQKPGQPPKLLIYAASNVESGVPARFSGSGSGTDFSLNIHPVEEDDIAMYFCQQSRKVPYTFGGGTKLEIK | 26.5 |
| B08 (antibody, V domains shown) VH: EVQLQQSGPELVKPGASVKISCKASGYSFTGYYMNWVKQSPEKSLEWIGEINPSTGGTTYNQKFKAKATLTVDKSSSTAYMQLKSLTSEDSAVYYCARGGADVWGTGTTVTVSS VL: DIVLTQSPASLAVSLGQRATISCRASESVEYYGTSLMQWYQQKPGQPPKLLIYAASNVESGVPARFSGSGSGTDFSLNIHPVEEDDIAMYFCQQSRKVPWTFGGGTKLEIK | 87.2 |
| B21 (antibody, V domains shown) VH: EVKLEESGGGLVQPGGSMKLSCAASGFTFSDAWMDWVRQSPEKGLEWVAEIRNKANNHATYYAESVKGRFTISRDDSKSSVYLQMNSLRAEDTGIYYCTLFLTGHFDYWGQGTTLTVSS VL: DIVMTQSQKFMSTSVGDRVSITCKASQNVRTAVAWYQQKPGQSPKALIYLASNRHTGVPDRFTGSGSGTDFTLTISNVQSEDLADYFCLQHWNYPLTFGSGTKLEIK | 17.2 |
| B23 (antibody, V domains shown) VH: EVKLEESGGGLVQPGGSMKLSCAASGFTFSDAWMDWVRQSPEKGLEWIAEIRNKANNHATYYAESVKGRFTISRDDSKSSVYLQMNSLRAEDTGIYYCTRGLTGPYFDYWGQGTTLTVSS VL: DIVMTQSQKFMSTSVGDRVTITCKASQNVRTAVAWYQQKPGQSPKALIYLASNRHTGVPDRFTGSGSGTDFTLTISNVQSEDLADYFCLQHWNYPLTFGAGTKLELK | 211 |
| B43 (antibody, V domains shown) VH: DVQLQESGPGLVKPSQSLSLTCSVTGYSITSGYYWNWIRQSPGNKLEWMGYISYDGSNKYNPSLKNRISITRDTSKNQFFLKLNSVTTEDTAIYYCARWDKGAMDYWGQGTSVTVSS VL: DIVMTQSQKFMSTSVGDRVSITCKASQNVRTAVAWYQQKPGQSPKALIYLASNRHTGVPDRFTGGGSGTDFTLTISNVQSEDLADYFCLQHWNYPLTFGAGTKLELK | 40.7 |
| B06 (antibody, V domains shown) VH: QAYLQQSGAELVRPGASVKMSCKASGYTFTSYNMHWVKQTPRQGLEWIGAFYPGNGDTSYNQKFKGKATLTVDKSSSTAYMQLSSLTSEDSAVYFCARDGYPYYYAMDYWGQGTSVTVSS VL: DIKMTQSPSSMYASLGERVTITCKASQDINSFLSWFQQKPGKSPKTLIYRANRLVDGVPSRFSGSGSGQDYSLTISSLEYEDMGIYYCLQYDEFPWTFGGGTKLEIK | 110 |
| B45 (antibody) chain 1: QVQLQQPGAELVKPGASVKVSCKASGYTFTSYWMHWVKQRPGQGLEWIGRIHPSDSDTNYNQKFKGKATLTVDKSSSTAYMQLCSLTSEDCAVYYCAIWEDYGVFYAMDYWGQGTSVTVSS chain 2: DIVMTQSQKFMSTSVGDRVSVTCKASQNVGTNVAWYQQKPGQSPKALIYSASYRYSGVPDRFTGSGSGTDFTLTISNVQSEDLAEYFCQQYNSYPLTFGAGAKLELK | 837 |
| B46 (antibody, V domains shown) VH: QVQLQQPGAELVKPGASVKVSCKASGYTFTSYWMHWVKQRPGQGLEWIGRIHPSDSDTNYNQNFKGKATLTVDKSSSTAYMQLSSLTSEDSAVYYCALDGYYGIWWGQGTLVTVSA VL: DIVMTQSQKFMSTSVGDRVSVTCKASQNVGTNVAWYQQKPGQSPKALIYSASYRYSGVPDRFTGSGSGTDFTLTISNVQSEDLAEYFCQQCNSYPLTFGGGTKLEIK | 282 |
| A16 (antibody, V domains shown) VH: DVQLQESGPGLVKPSQSLSLTCSVTGYSITSGYYWNWIRQFPGNKLEWMGYISYDGSNNYNPSLKNRISITRDTSKNQFFLKLNSVTTEDTATYYCARFHYGSRPRYWYFDVWGTGTTVTVSS VL: DIQMTQTTSSLSASLGDRVTISCSASQGIRNYLNWYQQKPDGTVKLLIYYTSSLHSGVPSRFSGSGSGTDYSLTISNLEPEDIATYYCQQYSKLPWTFGGGTKLEIK | 140 |
| A23 (antibody, V domains shown) VH: QAYLQQSGAELVRPGASVKMSCKASGYTFTSYNMHWVKQTPRQGLEWIGAIYPGNGDTSYNQKFKDKATLTVDKSSSTAYMQLSSLTSGDSAVYFCARDYYGCSYGYFDVWGTGTTVTVSS VL: DIQMTQTTSSLSASLGDRVTISCSASQGISNYLNWYQQKPDGTVKLLIYYTSSLHSGVPSRFSGSGSGTDYSLTISNLEPEDIATYYCQQYSKLPYTFGGGTKLEIK | 850 |
